Assay results: the supplement of paper PMC10567573

B1: DYRK1B (parent)
chain: KKVLNHGYDDDNHDYIVRSGERWL

Variants of: B1
Assay: protein stability index of a GFP-peptide fusion (GPS, HEK-293T) (PSI 1-6); higher = more stable
Conditions: c terminus: a fixed tail appended
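Note: lentivirally expressed fusions sorted by FACS into six bins by GFP to DsRed ratio, PSI derived from sequencing read proportions per bin multiplied by bin number.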

Protein stability index, by site and new letter:
D11: I 2.5 | P 2.58 | A 3.09 | K 2.92 | Y 2.48 | H 3.08 | N 2.89 | E 3.18 | V 2.54 | L 2.25 | M 2.59 | R 2.37 | S 3.03 | Q 2.83 | T 2.75 | F 2.15 | W 2.02 | C 2.55 | G 2.85
N5: Y 2.33 | T 2.57 | M 2.8 | K 2.97 | L 3.01 | G 3.42 | D 3.41 | S 2.67 | V 3.22 | I 2.82 | E 3.46 | C 2.84 | P 3.39 | Q 3.01 | R 2.92 | W 2.72 | H 2.89 | F 2.7 | A 2.88
H13: M 2.58 | F 1.95 | N 3.07 | D 3.73 | Y 2.64 | S 3.42 | P 3.57 | A 3.06 | V 2.96 | K 3.59 | G 3.27 | R 3.77 | Q 3.68 | E 4.24 | L 2.59 | W 2.44 | C 2.54 | I 2.79 | T 3.35
K2: V 2.86 | M 2.86 | W 2.12 | S 2.97 | N 3.79 | I 2.23 | G 3.6 | C 1.9 | D 4.31 | F 2.52 | Y 2.52 | H 3.19 | L 2.12 | Q 3.32 | E 3.7 | T 3.53 | R 3.13 | A 3.33 | P 3.46
D14: H 3.03 | W 1.85 | F 2.21 | V 2.13 | L 1.67 | Q 2.35 | G 2.71 | M 2.58 | S 2.82 | R 2.86 | T 2.79 | I 2.37 | K 3 | C 2.64 | A 2.78 | N 3.12 | P 2.71 | Y 2.55 | E 3.03
Y8: K 3.58 | M 3.48 | D 3.87 | V 3.58 | W 2.74 | A 3.82 | Q 3.77 | S 3.66 | F 3.46 | L 3.36 | R 4.28 | H 4.27 | N 4.15 | T 3.74 | G 3.56 | P 3.24 | E 3.71 | I 3.27 | C 3.24
H6: P 3.27 | E 3.44 | S 3.22 | Q 3.32 | N 3.38 | M 2.34 | I 3.01 | W 2.01 | F 2.4 | G 3.26 | V 2.84 | A 2.81 | R 2.91 | C 2.38 | L 2.51 | T 3.12 | D 3.48 | Y 3.12 | K 3.52
G7: P 3.15 | C 2.27 | E 3.64 | A 3.47 | R 3.31 | N 3.23 | W 2.74 | M 3.07 | H 2.84 | I 2.22 | F 2.4 | D 3.4 | T 3.53 | L 2.24 | K 3.3 | V 2.77 | Q 3.12 | S 3.21 | Y 2.93
Y15: F 3.09 | A 3.79 | C 3.58 | E 4.02 | D 4.19 | G 3.82
V3: Y 2.73 | M 3.04 | P 2.94 | I 2.73 | G 3.33 | S 3.47 | Q 3.08 | T 3 | D 3.74
